# Numbered stars: 1 amine (or outer) side, 2 acyl side, 3 side chain; on linkers, the order of the positions; unused ones are H or OH. Square brackets hold non-standard residues; d marks the D form. Peptide text beside a SMILES is read from it. * marks the point of attachment. Hydrazinoacetyl = O=C(CNN[*:1])[*:2]; Isonicotinoyl = O=C(c1ccncc1)*
# Experiments:
# MonoMac-6 cells = conditions: 50 µM
# [1] = assay type: in vitro ADME; conditions: rat liver lysosomal homogenate, 37 °C, LC-MS
# Description: Next, we examined the enzymatic stability of two peptide conjugates in rat liver lysosomal homogenate (see Supplementary Information 2 for the method description). Peptides were dissolved at 0.025 µg/µl concentration then allowed to react with the lysosomal homogenate. Degradation of the conjugates was fast. […]
# 1.2 Lysosomal degradation studies
# Enzymatic stability of INH-Dhvar4 and INH-Penetratin conjugates were assayed in rat liver lysosomal homogenate (protein content was 16.6 µg/µl). Peptides were dissolved in 0.2 M Sodium acetate buffer (pH=5.03) at 0.025 µg/µl concentration and added to the lysosomal homogenate to reach 1 : 1 protein / peptide ratio (37 °C, 600 rpm vortex) . At different time points (5 min, 30 min, 1 h, 6 h, 24 h) the reaction was stopped by the addition of 5 µl formic acid. Sampled were then measured by LC-MS using a Thermo Scientific Q Exactive Focus Hybrid Quadrupole -Orbitrap Mass Spectrometer (Suppl. Figu re 1). For chromatography, a Wa ters Acquity UPLC BEH C18 (1.7 µ, 150 × 2.1 mm) column was used with a flow rate of 300 µL/min applying a gradient elution from 2% to […]
# (1 picture or pasted object on this page, not shown here)
# EBC-1 cells = assay type: cell-based, human; conditions: 10 µM, 3 hrs, fixed, 30 profiles
# Description: In addition to the internalization experiments, the surface morphology of INH-peptide-treated and fixed EBC-1 cells was also studied with atomic force microscopy (AFM) ( Supplementary Information 1.3 ). High-resolution imaging of the cell surfaces was performed with a Flex-Axiom AFM system (Nanosurf, Liestal, Switzerland).The representative images and surface roughness of the native and treated cells are shown in Supplementary Figure S2 .
# 1.3 Membrane integrity evaluation by atomic force microscopy (AFM) […]
# High resolution imaging of the surfaces were performed with a Flex-Axiom AFM system (Nanosurf, Liestal, Switzerland) operating in dynamic mode utilizing soft-tapping cantilevers (Tap150-G, BudgetSensors) with nominal force constant of 5 N/m. The recorded images were evaluated with the Gwyddion software. […]
# Two cut-off frequencies were chosen with real-space wavelengths of 1 μm and 200 nm. […] Figure 2D,E,F. Scale dependent surface roughness of the cells was determined according to Antonio et al. Mean Rq values are somewhat higher in the peptide and conjugate treated cells, but […]
# Supplementary Figure 2. […] The apex area of the cells was selected for imaging with a scan area of 5 μm × 5 μm (512 × 512 pixel resolution), where the cellular curvature has the smallest distortion effect on the recorded height profiles. […]
# 1.4. […] To quantify […]
smiles,measurement,setting,value
CC(C)C[C@H](NC(=O)[C@H](CCCNC(=N)N)NC(=O)[C@H](CCCCN)NC(=O)CNNC(=O)c1ccncc1)C(=O)N[C@@H](Cc1ccccc1)C(=O)N[C@@H](CCCCN)C(=O)N[C@@H](CCCCN)C(=O)N[C@@H](CC(C)C)C(=O)N[C@@H](CC(C)C)C(=O)N[C@@H](Cc1ccccc1)C(=O)N[C@@H](CO)C(=O)N[C@@H](CC(C)C)C(=O)N[C@@H](CCCNC(=N)N)C(=O)N[C@@H](CCCCN)C(=O)N[C@@H](Cc1ccc(O)cc1)C(N)=O [INH-Dhvar4] (Isonicotinoyl-[Hydrazinoacetyl]KRLFKKLLFSLRKY-NH2),viability of MonoMac-6 cells,MonoMac-6 cells,> 80%
same,peaks of the intact conjugates after 30 min of incubation,"[1]; 0.2 M sodium acetate buffer pH 5.03, 0.025 µg/µl, 1:1 protein/peptide ratio",almost disappeared
same,most stable fragment (main peak after 24 h of incubation),"[1]; pH 5.03, 0.025 µg/µl",tripeptide (KRL) covalently attached to INH
same,membrane integrity (AFM surface roughness Rq),EBC-1 cells,membrane integrity maintained

# From publication PMC8632718, “Novel Assay Platform to Evaluate Intracellular Killing of Mycobacterium tuberculosis: In Vitro and In Vivo Validation” (Frontiers in Immunology, 2021)
